# Assay results reported in US20220202704A1, “PHARMACEUTICAL PARENTERAL COMPOSITION OF DUAL GLP1/2 AGONIST” (Zealand Pharma A/S, priority 2019, published 2022).
# *1 amine or outer side, *2 acyl side, *3 side chain or, on linkers, in order; H or OH if unused. Where no end group is shown, it is not given here. Side-chain parts run from the residue outwards. [ ]: non-standard residue; d: D form. The star is where a group is joined. C18 diacid = O=C(O)CCCCCCCCCCCCCCCCC(=O)*; γGlu = O=C(O)[C@H](CCC(=O)[*:2])N[*:1]; Aib = CC(C)(N)C(=O)O
# Test: Physical stability via ThT, fibril formation (ASSAY IVc)
# Assay type: physicochemical
# Design: key to Aggregation (fibrillation, ThT): FD = Fibrillation Detected; FND = Fibrillation Not Detected
# Details: for Aggregation (fibrillation, ThT): 40° C. 4 days
# Procedure: Samples were prepared in a total volume of 0.5 mL API (herein e.g. CPD1) stock solutions were prepared by dissolving API in demineralised water at ambient temperature (typically 25° C.) to achieve 5 and 25 mg/mL API, respectively. 8 working solutions were prepared: 1) 40 mM phosphate pH 6 and 80 μM ThT; 2) 40 mM phosphate pH 6.5 and 80 μM ThT; 3) 40 mM phosphate pH 7 and 80 μM ThT; 4) 40 mM phosphate pH 8 and 80 μM ThT; 5) 40 mM phosphate pH 6, 540 mM mannitol and 80 μM ThT; 6) 40 mM phosphate pH 6.5, 540 mM mannitol and 80 μM ThT; 7) 40 mM phosphate pH 7, 540 mM mannitol and 80 μM ThT; and 8) 40 mM phosphate pH 8, 540 mM mannitol and 80 μM ThT.
# 200 μL of API stock was mixed with 250 μL working solution, pH was measured and adjusted to target, followed by adding demineralised water to a final volume of 500 μL. Samples were loaded in a 96-well black fluorescence plate (clear bottom) in triplicate 3×150 μL. Data were collected at fixed intervals of 10 min, each preceded by 300 s of automixing (agitation), over a period of 96 hours at 40° C. Physical stability, expressed as lag-time of fibril formation (in hours), was defined as the intersection between two linear regressions representing the initial stable phase and the growth phase.
substance,measurement,setting,value
"CPD1: any form of the compound comprising SEQ ID NO: 1 (CPD1OH or CPD1NH2 and any pharmaceutically acceptable salt thereof) (H-H[Aib]EGSFTSELATILDK([γGlu-C18 diacid])QAARDFIAWLIQHKITD; also: C-terminal acid or amide, both forms, salts)","Aggregation (fibrillation, ThT)","2 mg/mL CPD1, 20 mM phosphate pH 6, 270 mM mannitol",FD
same,"Aggregation (fibrillation, ThT)","2 mg/mL CPD1, 20 mM phosphate pH 6, no added tonicity agent",FD
same,"Aggregation (fibrillation, ThT)","2 mg/mL CPD1, 20 mM phosphate pH 6.5, 270 mM mannitol",FND
same,"Aggregation (fibrillation, ThT)","2 mg/mL CPD1, 20 mM phosphate pH 6.5, no added tonicity agent",FND
same,"Aggregation (fibrillation, ThT)","2 mg/mL CPD1, 20 mM phosphate pH 7, 270 mM mannitol",FND
same,"Aggregation (fibrillation, ThT)","2 mg/mL CPD1, 20 mM phosphate pH 7, no added tonicity agent",FND
same,"Aggregation (fibrillation, ThT)","2 mg/mL CPD1, 20 mM phosphate pH 8, 270 mM mannitol",FND
same,"Aggregation (fibrillation, ThT)","2 mg/mL CPD1, 20 mM phosphate pH 8, no added tonicity agent",FND
same,"Aggregation (fibrillation, ThT)","10 mg/mL CPD1, 20 mM phosphate pH 6, 270 mM mannitol",FD
same,"Aggregation (fibrillation, ThT)","10 mg/mL CPD1, 20 mM phosphate pH 6, no added tonicity agent",FD
same,"Aggregation (fibrillation, ThT)","10 mg/mL CPD1, 20 mM phosphate pH 6.5, 270 mM mannitol",FND
same,"Aggregation (fibrillation, ThT)","10 mg/mL CPD1, 20 mM phosphate pH 6.5, no added tonicity agent",FND
same,"Aggregation (fibrillation, ThT)","10 mg/mL CPD1, 20 mM phosphate pH 7, 270 mM mannitol",FND
same,"Aggregation (fibrillation, ThT)","10 mg/mL CPD1, 20 mM phosphate pH 7, no added tonicity agent",FND
same,"Aggregation (fibrillation, ThT)","10 mg/mL CPD1, 20 mM phosphate pH 8, 270 mM mannitol",FND
same,"Aggregation (fibrillation, ThT)","10 mg/mL CPD1, 20 mM phosphate pH 8, no added tonicity agent",FND
same,Amyloid formation / fibrillation,"2 and 10 mg/mL CPD1, pH 6",amyloid formation was observed
same,Amyloid formation / fibrillation,"2 and 10 mg/mL CPD1, pH 7 or 8",no fibrillation was observed
same,"Aggregation propensity, mannitol as tonicity agent compared to control (no tonicity agent)","pH range 6-8, 40° C. 4 days",No difference
